Like-named read-outs stand apart in the source and are kept apart here.
Experiments:
[1] = target: T1, recombinant full-length Tau protein, longest isoform (Tau 2N4R) (human, UniProt P10636-8 1-441, limits assumed, biotinylated with NHS-biotin for SPR; 15N-labelled for NMR); assay: cell-based or functional assay
[2] = target: T1, recombinant full-length Tau protein, …; assay: SPR (Biacore T200), single-cycle kinetics, biotinylated Tau on streptavidin chip, VHH injected 0.125-2 µM
Description: (§1) Affinity measurements were performed on a BIAcore T200 optical biosensor instrument (GE Healthcare). Recombinant Tau proteins were biotinylated with 5 molar excess of NHS-biotin conjugates (Thermofisher) during 4 hours at 4° C. Capture of biotinylated Tau was performed on a streptavidin SA sensorchip in HBS-EP+ buffer (GE Healthcare). One flow cell was used as a reference to evaluate nonspecific binding and provide background correction. Biotinylated-Tau was injected at a flow-rate of 30 μL/min, until the total amount of captured Tau reached 500 resonance units (RUs). VHHs were injected sequentially with increasing concentrations ranging between 0.125 and 2 μM in a single cycle, with regeneration (3 successive washes of 1M NaCl) between each VHH. On the other hand, VHH Z70 was immobilized on a CMS chip in HBS-EP+ buffer (GE Healthcare) and increasing concentrations, ranging between 0.125 and 2 μM of the SUMO-Tau peptide, were successively injected. Single-Cycle Kinetics (SCK) analysis⁵² was performed to determine association kon and dissociation Koff rate constants by curve fitting of the sensorgrams using the 1:1 Langmuir model of interaction of the BIAevaluation sotware 2.0 (GE Healthcare). Dissociation equilibrium constants (KD) was calculated as kon/Koff.

[3] = target: T1, recombinant full-length Tau protein, …; assay: as above; remark: listed apart in the source
Description: as §1, with “VHH.” for “VHH. On the other hand, VHH Z70 was immobilized on a CMS chip in HBS-EP+ buffer (GE Healthcare) and increasing concentrations, ranging between 0.125 and 2 μM of the SUMO-Tau peptide, were successively injected.”, “(Kd)” for “(KD)”

[4] = target: T2, His-SUMO-Tau peptide Tau[273-318] (human, UniProt O02828 235-280 (Capra hircus entry), not fully specified); assay: SPR, single-cycle kinetics, VHH Z70 immobilized on the chip, SUMO-Tau[273-318] injected 0.125-2 µM
T2 construct: SUMO domain fused at its C-terminus to the Tau peptide [273-318]; also called fused peptide; not shown: The N-terminal HisTag, the SUMO3 domain and any linker from vector pETNKI-HisSUMO3-LIC
T2 peptide: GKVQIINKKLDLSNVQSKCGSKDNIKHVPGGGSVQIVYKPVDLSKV
Description: as §1, with “[…]. […]” for “kon/Koff.”

[5] = target: T1, recombinant full-length Tau protein, …; assay: SPR, biotinylated Tau on streptavidin chip (the best mutant is Mut1 by Table 4)
Description: as §1, with “VHH.” for “VHH. On the other hand, VHH Z70 was immobilized on a CMS chip in HBS-EP+ buffer (GE Healthcare) and increasing concentrations, ranging between 0.125 and 2 μM of the SUMO-Tau peptide, were successively injected.”, “(Kd)” for “(KD)”
A mutant library of VHH Z70 has been screened for mutants displaying a stronger affinity in yeast two-hybrid system as described above. 8 mutants were selected and their affinity have been further characterized using SPR experiments.

T1 sequence (P10636 other isoform, or with tags, fused parts or gaps limits assumed): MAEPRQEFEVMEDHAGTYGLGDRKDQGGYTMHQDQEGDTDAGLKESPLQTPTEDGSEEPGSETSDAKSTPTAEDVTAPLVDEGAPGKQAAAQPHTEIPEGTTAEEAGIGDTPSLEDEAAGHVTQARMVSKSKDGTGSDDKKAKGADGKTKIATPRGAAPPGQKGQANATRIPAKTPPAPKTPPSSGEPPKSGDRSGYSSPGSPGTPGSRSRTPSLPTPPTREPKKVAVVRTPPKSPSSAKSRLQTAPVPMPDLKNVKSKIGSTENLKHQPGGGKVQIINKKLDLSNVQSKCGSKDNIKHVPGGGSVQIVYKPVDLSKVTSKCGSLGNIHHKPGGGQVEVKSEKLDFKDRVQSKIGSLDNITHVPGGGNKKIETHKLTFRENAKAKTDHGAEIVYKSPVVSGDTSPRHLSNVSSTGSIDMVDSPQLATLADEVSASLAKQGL

Row | Binder | Kd [3] [nM] | koff [3] [s⁻¹] | kon [3] [M⁻¹ s⁻¹] | also measured
1 | VHH E4-1 (VHH, Selected from the synthetic Nali-H1 phage library; also called lead VHH E4-1) VHH: EVQLQASGGGFVQPGGSLRLSCAASGATSTFDGMGWFRQAPGKEREFVSAISYEQGSYTYYADSVKGRFTISRDNSKNTVYLQMNSLRAEDTATYYCAPAYEGDLYAFDSYWGQGTQVTVSS | – | – | – | Thioflavin T fluorescence signal (% of positive control), 1:1 Tau:VHH E4-1 molar ratio [1]: 58.3%; maximal Thioflavin T fluorescence signal (% of positive control), molar ratio 1:0.25 Tau:VHH E4-1 [1]: 86.9%; time to gain 50% of maximal Thioflavin T signal, 1:1 Tau:VHH E4-1 molar ratio [1]: > 12.8 h; time to gain 50% of maximal Thioflavin T signal, molar ratio 1:0.25 Tau:VHH E4-1 (2.5 h for the positive control) [1]: ~3.8 h; Kd [2]: 345 nM; koff [2]: 0.0017 s⁻¹; kon [2]: 4980 M⁻¹ s⁻¹
2 | VHH Z70 (VHH, E4-1 with G12V, P16S, T81M and W114G; It may be the form actually produced from pHEN2; also called single domain antibody Z70; optimized VHH Z70) VHH: EVQLQASGGVFVQSGGSLRLSCAASGATSTFDGMGWFRQAPGKEREFVSAISYEQGSYTYYADSVKGRFTISRDNSKNMVYLQMNSLRAEDTATYYCAPAYEGDLYAFDSYGGQGTQVTVSS | 147 | 0.00267 | 18100 | maximal Thioflavin T fluorescence signal (% of positive control), 1:1 Tau:VHH Z70 molar ratio [1]: 4.1%; Kd [2]: 147 nM; koff [2]: 0.0026 s⁻¹; kon [2]: 18100 M⁻¹ s⁻¹; Kd [4]: 85 nM
3 | VHH Mut9 (VHH, Variant of Z70; also called VH Mut9) VHH: EVQLQASGGVFVQSGGSLRLSCAASGATSTFDGMGWFRQAPGKEREFVSAISYEQGSYTYYADSVKGRFTISRDNSKNMVYLQMNSLRAEDTATYYCASAYEGDLYAFDSYGEQGTQVTVSS | 51 | 0.00205 | 40100 | –
4 | VHH Mut14 (VHH, Variant of Z70; also called VH Mut14) VHH: EVQLQASGGVFVQSGGSLRLSCAASGATSIFDGMGWFRQAPGKEREFVSAISYGQGSYTYYADSVKGRFTISRDNSKNMVYLQMNSLRAEDTATYYCAPAYEGDLYAFDSYGEQGTQVTVSS | 74.2 | 0.0014 | 18800 | –
5 | VHH Mut5 (VHH, Variant of Z70; also called VH Mut5) VHH: EVQLQASGGVFVQSGGSLRLSCAASGATSTFDGMGWFRQAPGKEREFVSAISYEQGSYTYYADSVKGRFTISRDNSKNMVYLQMNSLRAEDTASYYCAPAYEGDLYAFDSYGGQGTQVTVSS | 80.8 | 0.000883 | 10900 | –
6 | VHH Mut3 (VHH, Variant of Z70; also called VH Mut3) VHH: EVQLQASGGVFVQSGGSLRLSCAASGATSTFDGMGWFRQAPGKEKEFVSAISYEQGSYTYYADSVKGRFTISRDNSKNMVYLQMNSLRAEDTATYYCAPAYEGDLYAFDSYGGQGTQVTVSS | 80.5 | 0.0021 | 26000 | –
7 | VHH Mut1 (VHH, Variant of Z70; also called VH Mut1) VHH: EVQLQASGGVFVQSGGSLRLSCAASGATSTFDGMGWFRQAPGKEREFVSAISYEQGSYTYYADSVKGRFTISRDNSKNMVYLQMNSLRAEDTATYYCAPAYEGDLYAFDSYGEQGTQVTVSS | 22.6 | 0.00242 | 107000 | fold improvement of KD against VHH Z70 [5]: > 6 fold
8 | VHH Mut12 (VHH, Variant of Z70; also called VH Mut12) VHH: AEVQLQASGGVFVQSGGSLRLCCAASGATSTFDGMGWFRQAPGKEREFVSAISYEQGSYTYYADSVKGRFTISRDNSKNMVYLQMNSLRAEDTATYYCAPAYEGDLYAFDSYGEQGTQVTVSS | 61.1 | 0.00207 | 33900 | –
9 | VHH Mut20 (VHH, Variant of Z70; also called VH Mut20) VHH: EVQLQASGGVFVQSGGSLRLSCAASGATSTFDGMGWFRQAPGKEKEFVSAISYEQGSYTYYADSVKGRFTISRDNSKNMVYLQMNSLRAEDTATYYCAPAYEGDLYAFDSYGEQGTQVTVSS | 41.8 | 0.00089 | 21200 | –
10 | VHH Mut15 (VHH, Variant of Z70; also called VH Mut15) VHH: EVQLQASGGVFVQSGGSLRLSCAASGATSTFDGMGWFRQAPGKEREFVSAISYEQGSYTYYADSVKGRFTISRDNSKNMVYLQMNSLGAEDTATYYCASAYEGDLYAFDSYEGQGTQVTVSS | 95.6 | 0.00203 | 21300 | –

— US20220017611A1 (INSERM INSTITUTE NATIONAL DE LA SANT ET DE LA RECHERCHE M …, published 2022)
